Molecular target: the molecule itself
Assay: dynamic light scattering

B1: D48V-GLTP (human glycolipid transfer protein, D48V mutant) (natural protein, UniProt Q9NZD2 1-209, looked up)
chain: MALLAEHLLKPLPADKQIETGPFLEAVSHLPPFFDCLGSPVFTPIKAVISGNITKIKAVYDTNPAKFRTLQNILEVEKEMYGAEWPKVGATLALMWLKRGLRFIQVFLQSICDGERDENHPNLIRVNATKAYEMALKKYHGWIVQKIFQAALYAAPYKSDFLKALSKGQNVTEEECLEKIRLFLVNYTATIDVIYEMYTQMNAELNYKV
stoichiometry N: 2
